Abundance fitness data for 47 variants are collected here from the Human Domainome abundance scans (Beltran et al. 2025).

B1: Zinc finger homeobox protein 4, residues 2562 to 2617; numbered along this chain, Q86UP3 (parent)
chain: RLRTTITPEQLEILYEKYLLDSNPTRKMLDHIAREVGLKKRVVQVWFQNTRARERK

± gives the uncertainty stated by the source.

This data set covers variants of B1. Put plainly: abundance fitness (aPCA) (normalised: wild type 0, dead -1); higher = more abundant; growth selection in yeast, the domain comes from the species named. The following applies: Homo sapiens.
Turning to RLRTTITPEQLEILYEKYLLDSNPTVKMLDHIAREVGLKKRVVQVWFQNTRARERK [R26V], the abundance fitness amounted to 0.223 ± 0.11.
Under RLRTTITPEQLEILYEKYLLDSNPTLKMLDHIAREVGLKKRVVQVWFQNTRARERK [R26L] stands 0.24 ± 0.065.
Under RLRTTITPEQLEILYEKYLLDSNPTKKMLDHIAREVGLKKRVVQVWFQNTRARERK [R26K] stands 0.1 ± 0.33.
Regarding RLRTTITPEQLEILYEKYLLDSNPTTKMLDHIAREVGLKKRVVQVWFQNTRARERK [R26T], the abundance fitness was found to be 0.52 ± 0.12.
For RLRTTITPEQLEILYEKYLLDSNPTMKMLDHIAREVGLKKRVVQVWFQNTRARERK [R26M] the value was -0.092 ± 0.21.
Under RLRTTITPEQLEILYEKYLLDSNPTDKMLDHIAREVGLKKRVVQVWFQNTRARERK [R26D] stands 0.285 ± 0.12; under RLRTTITPEQLEILYEKYLLDSNVTRKMLDHIAREVGLKKRVVQVWFQNTRARERK [P24V], -0.82 ± 0.098.
For RLRTTITPEQLEILYEKYLLDSNSTRKMLDHIAREVGLKKRVVQVWFQNTRARERK [P24S] the value was -0.968 ± 0.16; for RLRTTITPEQLEILYEKYLLDSNRTRKMLDHIAREVGLKKRVVQVWFQNTRARERK [P24R], -0.925 ± 0.07.
Consider RLRTTITPEQLEILYEKYLLDSNQTRKMLDHIAREVGLKKRVVQVWFQNTRARERK [P24Q], for which the abundance fitness is -0.929 ± 0.12.
Under RLRTTITPEQLEILYEKYLLDSNNTRKMLDHIAREVGLKKRVVQVWFQNTRARERK [P24N] stands -0.754 ± 0.1.
For RLRTTITPEQLEILYEKYLLDSNLTRKMLDHIAREVGLKKRVVQVWFQNTRARERK [P24L] the value was -0.639 ± 0.061; for RLRTTITPEQLEILYEKYLLDSNKTRKMLDHIAREVGLKKRVVQVWFQNTRARERK [P24K], -0.948 ± 0.2.
Under RLRTTITPEQLEILYEKYLLDSNMTRKMLDHIAREVGLKKRVVQVWFQNTRARERK [P24M] stands -0.687 ± 0.12.
RLRTTITPEQLEILYEKYLLDSNTTRKMLDHIAREVGLKKRVVQVWFQNTRARERK [P24T]: the abundance fitness is -0.947 ± 0.12.
For RLRTTITPEQLEILYEKYLLDSNPTRKMTDHIAREVGLKKRVVQVWFQNTRARERK [L29T] the value was -0.228 ± 0.08; for RLRTTITPEQLEILYEKYLLDSNPTRKMEDHIAREVGLKKRVVQVWFQNTRARERK [L29E], 0.155 ± 0.082; for RLRTTITPEQLEILYEKYLLDSNPTRKMQDHIAREVGLKKRVVQVWFQNTRARERK [L29Q], -0.124 ± 0.068.
Under RLRTTITPEQLEILYEKYLLDSNPTRKMIDHIAREVGLKKRVVQVWFQNTRARERK [L29I] stands -0.033 ± 0.063.
With RLRTTITPEQLEILYEKYLLDSNPTRKMSDHIAREVGLKKRVVQVWFQNTRARERK [L29S], the abundance fitness was -0.498 ± 0.066.
For RLRTTITPEQLEILYEKYLLDSNPTRKMGDHIAREVGLKKRVVQVWFQNTRARERK [L29G] the value was -0.94 ± 0.11.
Under RLRTTITPEQLEILYEKYLLDSNPTRKMMDHIAREVGLKKRVVQVWFQNTRARERK [L29M] stands -0.429 ± 0.12; under RLRTTITPEQLEILYEKYLLDSNPTRKMPDHIAREVGLKKRVVQVWFQNTRARERK [L29P], -0.752 ± 0.18.
Under RLRTTITPEQLEILYEKYLLDSNPTRKMKDHIAREVGLKKRVVQVWFQNTRARERK [L29K] stands -0.621 ± 0.1; under RLRTTITPEQLEILYEKYLLDSNPTRKMYDHIAREVGLKKRVVQVWFQNTRARERK [L29Y], -0.239 ± 0.18.
As for RLRTTITPEQLEILYEKYLLDSNPTRKMDDHIAREVGLKKRVVQVWFQNTRARERK [L29D], the abundance fitness is -0.721 ± 0.17.
For RLRTTITPEQLEILYEKYLLDSNPTRKMWDHIAREVGLKKRVVQVWFQNTRARERK [L29W] the value was -0.004 ± 0.092.
For RLRTTITPEQLEILYEKYLLDSNPTRKMFDHIAREVGLKKRVVQVWFQNTRARERK [L29F] the value was -0.049 ± 0.07.
For RLRTTITPEQLEILYEKYLLDSNPTRKMHDHIAREVGLKKRVVQVWFQNTRARERK [L29H], the abundance fitness is -0.95 ± 0.29.
As for RLRTTITPEQLEILYEKYLLDSNPTRKMRDHIAREVGLKKRVVQVWFQNTRARERK [L29R], the abundance fitness is -0.346 ± 0.053.
For RLRTTITPEQLEILYEKYLLDSNPTRKMVDHIAREVGLKKRVVQVWFQNTRARERK [L29V] the value was -0.024 ± 0.062; for RLRTTITPEQLEILYEKYLLDSNPRRKMLDHIAREVGLKKRVVQVWFQNTRARERK [T25R], -0.72 ± 0.17.
Under RLRTTITPEQLEILYEKYLLDSNPSRKMLDHIAREVGLKKRVVQVWFQNTRARERK [T25S] stands -0.056 ± 0.11; under RLRTTITPEQLEILYEKYLLDSNPERKMLDHIAREVGLKKRVVQVWFQNTRARERK [T25E], 0.095 ± 0.075; under RLRTTITPEQLEILYEKYLLDSNPHRKMLDHIAREVGLKKRVVQVWFQNTRARERK [T25H], -0.596 ± 0.48.
As to RLRTTITPEQLEILYEKYLLDSNPQRKMLDHIAREVGLKKRVVQVWFQNTRARERK [T25Q], the abundance fitness was -0.476 ± 0.41.
Under RLRTTITPEQLEILYEKYLLDSNPPRKMLDHIAREVGLKKRVVQVWFQNTRARERK [T25P] stands -0.147 ± 0.13; under RLRTTITPEQLEILYEKYLLDSNPDRKMLDHIAREVGLKKRVVQVWFQNTRARERK [T25D], -0.193 ± 0.17; under RLRTTITPEQLEILYEKYLLDSNPGRKMLDHIAREVGLKKRVVQVWFQNTRARERK [T25G], -0.331 ± 0.061.
As to RLRTTITPEQLEILYEKYLLDSNPNRKMLDHIAREVGLKKRVVQVWFQNTRARERK [T25N], the abundance fitness was -0.148 ± 0.094.
For RLRTTITPEQLEILYEKYLLDSNPCRKMLDHIAREVGLKKRVVQVWFQNTRARERK [T25C] the value was 0.181 ± 0.15.
Under RLRTTITPEQLEILYEKYLLDSNPMRKMLDHIAREVGLKKRVVQVWFQNTRARERK [T25M] stands -0.364 ± 0.22; under RLRTTITPEQLEILYEKYLLDSNPARKMLDHIAREVGLKKRVVQVWFQNTRARERK [T25A], -0.384 ± 0.11; under RLRTTITPEQLEILYEKYLLDSNPIRKMLDHIAREVGLKKRVVQVWFQNTRARERK [T25I], -0.526 ± 0.44.
For RLRTTITPEQLEILYEKYLLDSNPLRKMLDHIAREVGLKKRVVQVWFQNTRARERK [T25L] the value was -0.546 ± 0.13.
Regarding RLRTTITPEQLEILYEKYLLDSNPTRKMLAHIAREVGLKKRVVQVWFQNTRARERK [D30A], the abundance fitness was -0.108 ± 0.064.
Under RLRTTITPEQLEILYEKYLLDSNPTRKMLCHIAREVGLKKRVVQVWFQNTRARERK [D30C] stands -0.431 ± 0.16.
